Measurements from patent publication US20240132603A1 (HARBOUR BIOMED US, published 2024).

Key:
[1] = target: T1, cynomolgus monkey CCR8 (cynomolgus monkey, UniProt G7NYJ2 1-355); assay: FACS, CHO-K1-CynoCCR8 cells
T1 construct: whole, on cells; also called CynoCCR8
Method in brief: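 Anti-CCR8 antibodies titrated in 5-fold steps from 200 nM onto 1E6 cells/mL CHO-K1-CynoCCR8 in DPBS/2% FBS, 1 h at 4 °C. Bound antibody detected with 1:1000 secondary antibody, 40 min at 4 °C, then flow cytometry.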

[2] = target: T2, TSPAN12-FLAG (UniProt O95859 1-305); assay: flow cytometry, HEK293-TSPAN12 cells
T2 construct: whole, on cells; order of protein and tag unknown; also called HEK293-TSPAN12; not shown: FLAG tag
T2 sequence (looked up): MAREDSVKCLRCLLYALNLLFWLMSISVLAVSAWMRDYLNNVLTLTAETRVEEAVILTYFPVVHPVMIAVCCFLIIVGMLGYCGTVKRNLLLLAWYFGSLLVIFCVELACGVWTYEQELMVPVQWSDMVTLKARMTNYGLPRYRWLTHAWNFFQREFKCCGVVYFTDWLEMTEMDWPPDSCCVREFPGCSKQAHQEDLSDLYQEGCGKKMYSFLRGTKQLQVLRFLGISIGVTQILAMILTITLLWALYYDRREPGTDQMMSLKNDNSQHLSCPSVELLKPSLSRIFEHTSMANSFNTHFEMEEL
Source text: After that, HEK293 cells were transfected with commercial MMP16 (protein information can be found under Uniprot P51512), CD40LG (protein information can be found under Uniprot P29965), CD147 (protein information can be found under Uniprot P35612), TSPAN4 (protein information can be found under Uniprot 014817), and TSPAN12 (protein information can be found under Uniprot 095859) plasmids for further verification of the binding of PR005565, PR006275 and PR006276 to these proteins. […] However, the binding values of PR005565, PR006275 and PR006276 to MMP16, CD40LG, CD147, TSPAN4 and TSPAN12 after transfection of HEK293 cells were all consistent with the signal values of HEK293 cells themselves. Thus, PR005565, PR006275 and PR006276 had no non-specific binding to MMP16, CD40LG, CD147, TSPAN4 and TSPAN12 proteins (see Table 50).

[3] = target: T3, CD40LG (UniProt P29965 1-261); assay: flow cytometry, HEK293-CD40LG cells
T3 construct: whole, on cells; also called HEK293-CD40LG
T3 sequence (looked up): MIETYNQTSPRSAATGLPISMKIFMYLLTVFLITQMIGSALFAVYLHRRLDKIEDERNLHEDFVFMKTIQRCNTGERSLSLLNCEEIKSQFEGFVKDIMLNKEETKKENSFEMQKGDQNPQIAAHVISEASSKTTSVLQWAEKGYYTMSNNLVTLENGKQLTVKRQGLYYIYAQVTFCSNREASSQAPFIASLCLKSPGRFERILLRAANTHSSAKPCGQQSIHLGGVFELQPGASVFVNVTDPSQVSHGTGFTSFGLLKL

[4] = target: T4, TSPAN4-FLAG (UniProt O14817 1-238, limits assumed); assay: flow cytometry, HEK293-TSPAN4 cells
T4 construct: whole, on cells; order of protein and tag unknown; also called HEK293-TSPAN4; not shown: FLAG tag
T4 sequence (looked up): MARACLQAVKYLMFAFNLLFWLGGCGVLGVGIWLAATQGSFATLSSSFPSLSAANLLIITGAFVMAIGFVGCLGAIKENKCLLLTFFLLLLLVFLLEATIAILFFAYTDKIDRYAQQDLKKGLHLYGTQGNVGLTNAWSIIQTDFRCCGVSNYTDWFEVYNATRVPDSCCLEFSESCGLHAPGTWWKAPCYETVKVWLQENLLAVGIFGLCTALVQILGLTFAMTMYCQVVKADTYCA

[5] = target: T5, MMP16 (UniProt P51512 120-607); assay: flow cytometry, HEK293-MMP16 cells
T5 construct: whole, on cells; also called HEK293-MMP16

[6] = target: T6, human CCR8 (human, UniProt P51685 1-355); assay: FACS, CHO-K1-hCCR8 cells
T6 construct: whole, on cells; construct used for the overexpressing cell lines is not described; also called hCCR8
Method in brief: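 Anti-CCR8 antibodies, in 5-fold serial dilution from 200 nM in DPBS with 2% FBS, were bound to detached cells for 1 h at 4 °C. A 1:1000 secondary antibody followed for 40 min at 4 °C, and binding was read by flow cytometry.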

[7] = target: T7, CD147; assay: flow cytometry, HEK293-CD147 cells
T7 construct: also called HEK293-CD147

T1 sequence (G7NYJ2 entry or part of it): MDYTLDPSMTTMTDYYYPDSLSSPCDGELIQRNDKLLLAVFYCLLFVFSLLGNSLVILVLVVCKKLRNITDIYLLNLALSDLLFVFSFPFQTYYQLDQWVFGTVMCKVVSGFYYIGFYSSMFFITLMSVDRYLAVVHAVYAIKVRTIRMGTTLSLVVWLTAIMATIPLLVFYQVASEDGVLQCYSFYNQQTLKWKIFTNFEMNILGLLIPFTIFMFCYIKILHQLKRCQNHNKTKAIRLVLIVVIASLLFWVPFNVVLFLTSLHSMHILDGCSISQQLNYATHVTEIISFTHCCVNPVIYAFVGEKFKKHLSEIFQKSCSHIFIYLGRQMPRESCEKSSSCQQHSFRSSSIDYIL
T6 sequence (P51685 whole entry): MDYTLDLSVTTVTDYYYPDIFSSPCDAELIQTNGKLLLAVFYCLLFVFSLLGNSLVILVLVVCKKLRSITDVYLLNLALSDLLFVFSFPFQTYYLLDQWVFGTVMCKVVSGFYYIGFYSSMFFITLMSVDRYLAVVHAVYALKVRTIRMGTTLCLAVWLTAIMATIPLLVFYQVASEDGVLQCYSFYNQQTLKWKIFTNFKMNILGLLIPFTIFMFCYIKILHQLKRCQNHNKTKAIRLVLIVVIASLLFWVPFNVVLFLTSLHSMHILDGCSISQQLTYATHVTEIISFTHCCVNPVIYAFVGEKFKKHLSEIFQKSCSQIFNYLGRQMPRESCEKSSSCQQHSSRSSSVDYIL
T5 sequence (P51512 120-607): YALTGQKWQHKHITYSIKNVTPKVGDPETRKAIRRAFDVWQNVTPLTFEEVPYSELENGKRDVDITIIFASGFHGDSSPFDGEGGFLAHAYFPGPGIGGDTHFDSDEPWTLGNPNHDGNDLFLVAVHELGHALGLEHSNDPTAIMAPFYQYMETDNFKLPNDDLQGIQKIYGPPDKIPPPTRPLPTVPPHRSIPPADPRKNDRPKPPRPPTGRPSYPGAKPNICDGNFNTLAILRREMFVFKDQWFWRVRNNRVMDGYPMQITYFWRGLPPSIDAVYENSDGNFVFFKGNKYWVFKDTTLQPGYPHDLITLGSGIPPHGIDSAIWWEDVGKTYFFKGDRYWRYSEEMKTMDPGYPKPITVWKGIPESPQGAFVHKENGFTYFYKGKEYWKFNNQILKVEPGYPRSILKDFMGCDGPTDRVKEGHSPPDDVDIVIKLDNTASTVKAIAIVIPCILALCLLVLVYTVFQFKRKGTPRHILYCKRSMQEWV

B1: PR005565 (antibody, human IgG1, kappa)
heavy: not shown
light: DIVMTQSPLSLPVTLGQPASISCRSSKSLLHSNAKIYLYWFQQRPGQSPRLLIYRMSNLASGVPDRFSGSGSGTDFTLKISRVEAEDVGVYYCMQHLEYPLTFGQGTKLEIKRTVAAPSVFIFPPSDEQLKSGTASVVCLLNNFYPREAKVQWKVDNALQSGNSQESVTEQDSKDSTYSLSSTLTLSKADYEKHKVYACEVTHQGLSSPVTKSFNRGEC
notes: IgG1 constant region; same VH/VL as PR004666
With B1 the EC50 [1] was 0.76 nM, the MFI [2] was 219 and the MFI [3] was 241. It also gave an MFI [4] of 207, an MFI [5] of 146 and an EC50 [6] of 0.42 nM. The MFI [7] was 212.
